Test results published in the supplement of paper PMC7877785.
± gives the uncertainty stated by the source.

Test: self-splicing fitness, log relative to wild type (ln ratio); higher = more splicing; Tetrahymena group I intron in knt gene, E. coli kanamycin selection, DiMSum; sequences stand for … in CUCUCU…GGAGGGAAAAGUUAUCAGGCAUGCACCUGGUAGCUAGUCUUUAAACCAAUAGAUUGCAUCGGUUUAAAAGGCAAGACCGUCAAAUUGCGGGAAAGGGGUCAACAGCCGUUCAGUACCAAGUCUCAGGGGAAACUUUGAGAUGGCCUUGCAAAGGGUAUGGUAAUAAGCUGACGGACAUGGUCCUAACCACGCAGCCAAGUCCUAAGUCAACAGAUCUUCUGUUGAUAUGGAUGCAGUUCACAGACUAAAUGUCGGUCGGGGAAGAUGUAUUCUUCUCAUAAGAUAUAGUCGGACCUCUCCUUAAUGGGAGCUAGCGGAUGAAGUGAUGCAACACUGGAGCCGCUGGGAACUAAUUUGUAUGCGAAAGUAUAUUGAUUAGUUUUGGAGUACUCGUGGUCG
Method in brief: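 Fitness was computed with DiMSum as the error-weighted combination of replicate fold changes, kanamycin versus none, each normalised to wild type. The library randomised all eight intron nucleotides of the P1ex region, with the intron placed in the knt kanamycin-resistance gene on pET-22b(+) in E. coli BL21(DE3). Six replicate transformations were grown overnight at 37°C or 30°C on LB agar with or without 25 μg/mL kanamycin, plus 100 μg/mL carbenicillin, 50 μM IPTG and 0.2% rhamnose. Pooled colonies were amplicon-sequenced on an Illumina HiSeq 2500.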

Sequence	self-splicing fitness (ln) (30 °C)	self-splicing fitness (ln) (37 °C)
CCCAAGCAAUAUUACGCCAG	-2.9 ± 0.19	-3.07 ± 0.33
CCCAAGCAAUAUUACGCCUA	-2.65 ± 0.26	-2.8 ± 0.31
CCCAAGCAAUAUUACGCGCG	-3.78 ± 0.23	-2.24 ± 0.21
CCCAAGCAAUAUUACGCUCG	-3.17 ± 0.2	-2.14 ± 0.33
CCCAAGCAAUAUUACGGCAC	-4.31 ± 0.36	-2.5 ± 0.21
CCCAAGCAAUAUUACGGCAG	-3.73 ± 0.17	-1.65 ± 0.12
CCCAAGCAAUAUUACGGGCA	-3.96 ± 0.18	-1.82 ± 0.11
CCCAAGCAAUAUUACGGUUG	-3.99 ± 0.17	-2.52 ± 0.13
CCCAAGCAAUAUUACGUAGC	-2.5 ± 0.42	-2.74 ± 0.39
CCCAAGCAAUAUUACGUCUA	-4.2 ± 0.3	-2.92 ± 0.23
CCCAAGCAAUAUUACGUCUU	-3.41 ± 0.11	-2.25 ± 0.12
CCCAAGCAAUAUUACGUGGG	-3.29 ± 0.11	-2.82 ± 0.17
CCCCAGCAAUAUUACGAAAC	-3.12 ± 0.2	-1.89 ± 0.27
CCCCAGCAAUAUUACGACCU	-3.23 ± 0.15	-2.32 ± 0.23
CCCCAGCAAUAUUACGAGGC	-3.53 ± 0.26	-3.1 ± 0.35
CCCCAGCAAUAUUACGAGUC	-3.78 ± 0.14	-3.03 ± 0.17
CCCCAGCAAUAUUACGCAAU	-2.96 ± 0.12	-1.34 ± 0.12
CCCCAGCAAUAUUACGCAUC	-3.84 ± 0.31	-2.68 ± 0.3
CCCCAGCAAUAUUACGCCAU	-2.14 ± 0.12	-2.32 ± 0.17
CCCCAGCAAUAUUACGCCCU	-4.24 ± 0.39	-1.98 ± 0.28
CCCCAGCAAUAUUACGCGUG	-4.14 ± 0.18	-2.76 ± 0.15
CCCCAGCAAUAUUACGCUAG	-3.68 ± 0.13	-2.86 ± 0.17
CCCCAGCAAUAUUACGGACC	-4.08 ± 0.35	-2.64 ± 0.26
CCCCAGCAAUAUUACGGAGA	-2.32 ± 0.12	-1.61 ± 0.15
CCCCAGCAAUAUUACGGCCC	–	-1.64 ± 0.47

Sequence	self-splicing fitness (ln) (30 °C)	self-splicing fitness (ln) (37 °C)
CCCCAGCAAUAUUACGGGCU	-3.75 ± 0.17	-2.32 ± 0.17
CCCCAGCAAUAUUACGGGGG	-4.74 ± 0.16	-2.67 ± 0.12
CCCCAGCAAUAUUACGGUGG	-4.09 ± 0.2	-1.86 ± 0.11
CCCCAGCAAUAUUACGGUUG	-2.4 ± 0.087	-1.5 ± 0.1
CCCCAGCAAUAUUACGUAAC	-5 ± 0.27	-2.67 ± 0.18
CCCCAGCAAUAUUACGUGUC	-4.78 ± 0.2	-2.53 ± 0.15
CCCCAGCAAUAUUACGUGUG	-2.66 ± 0.084	-2.5 ± 0.11
CCCGAGCAAUAUUACGAACG	–	-1.84 ± 0.44
CCCGAGCAAUAUUACGAAGA	-2.86 ± 0.31	–
CCCGAGCAAUAUUACGAAUU	–	-2.44 ± 0.35
CCCGAGCAAUAUUACGACCU	-2.45 ± 0.31	-2.19 ± 0.32
CCCGAGCAAUAUUACGAGGC	-2.89 ± 0.28	-2.47 ± 0.27
CCCGAGCAAUAUUACGAGUU	-4.2 ± 0.19	-2.29 ± 0.17
CCCGAGCAAUAUUACGAUAG	-3.17 ± 0.22	-2.02 ± 0.2
CCCGAGCAAUAUUACGAUAU	-4.76 ± 0.45	-2.2 ± 0.22
CCCGAGCAAUAUUACGCCUA	-1.85 ± 0.25	-2.94 ± 0.35
CCCGAGCAAUAUUACGCCUU	-2.99 ± 0.2	-1.56 ± 0.34
CCCGAGCAAUAUUACGCGUC	-5.24 ± 0.32	-2.91 ± 0.23
CCCGAGCAAUAUUACGCUAU	-4.39 ± 0.34	-2.49 ± 0.2
CCCGAGCAAUAUUACGCUCG	-3.62 ± 0.22	-2.92 ± 0.27
CCCGAGCAAUAUUACGGAUA	-3.04 ± 0.22	-2.89 ± 0.27
CCCGAGCAAUAUUACGGAUC	-3.92 ± 0.46	-2.06 ± 0.27
CCCGAGCAAUAUUACGGCCU	-2.93 ± 0.33	–
CCCGAGCAAUAUUACGGGCG	-3.03 ± 0.19	-2.47 ± 0.25
CCCGAGCAAUAUUACGGGCU	-3.98 ± 0.26	-2.65 ± 0.21

Sequence	self-splicing fitness (ln) (30 °C)	self-splicing fitness (ln) (37 °C)
CCCGAGCAAUAUUACGGGGU	-2.92 ± 0.16	-2.93 ± 0.17
CCCGAGCAAUAUUACGGUAC	-4.04 ± 0.22	-2.85 ± 0.21
CCCGAGCAAUAUUACGGUGG	-3.06 ± 0.13	-3.2 ± 0.18
CCCGAGCAAUAUUACGUCCU	-3.97 ± 0.39	-2.75 ± 0.39
CCCGAGCAAUAUUACGUGCG	-4.04 ± 0.21	-2.82 ± 0.21
CCCGAGCAAUAUUACGUUCU	-3.61 ± 0.25	-2.1 ± 0.25
CCCUAGCAAUAUUACGAAAA	-2.83 ± 0.2	-3.22 ± 0.27
CCCUAGCAAUAUUACGAAAU	-2.88 ± 0.21	-2.59 ± 0.31
CCCUAGCAAUAUUACGAAGU	-4.34 ± 0.28	-2.89 ± 0.27
CCCUAGCAAUAUUACGACCG	-1.21 ± 0.2	-2.17 ± 0.34
CCCUAGCAAUAUUACGACGA	-3.12 ± 0.24	-2.61 ± 0.27
CCCUAGCAAUAUUACGAGGC	-4.41 ± 0.42	-4.06 ± 0.18
CCCUAGCAAUAUUACGAGUA	-3.32 ± 0.29	-2.72 ± 0.33
CCCUAGCAAUAUUACGAUUU	-3.35 ± 0.17	-1.91 ± 0.17
CCCUAGCAAUAUUACGCGAU	-3.74 ± 0.18	-2.77 ± 0.2
CCCUAGCAAUAUUACGCGCU	–	-1.78 ± 0.47
CCCUAGCAAUAUUACGCUAU	-3.92 ± 0.43	–
CCCUAGCAAUAUUACGCUUU	-4.12 ± 0.22	-2.49 ± 0.18
CCCUAGCAAUAUUACGGGUG	-2.51 ± 0.11	-0.894 ± 0.089
CCCUAGCAAUAUUACGGUUA	-4.05 ± 0.35	-2.71 ± 0.21
CCCUAGCAAUAUUACGUACC	-1.72 ± 0.18	-1.05 ± 0.3
CCCUAGCAAUAUUACGUAUC	–	-3.37 ± 0.39
CCCUAGCAAUAUUACGUCAU	-2.27 ± 0.13	-3.11 ± 0.24
CCCUAGCAAUAUUACGUCCA	-2.95 ± 0.23	-2.83 ± 0.31
CCCUAGCAAUAUUACGUGGG	-3.48 ± 0.1	-2.54 ± 0.14

Sequence	self-splicing fitness (ln) (30 °C)	self-splicing fitness (ln) (37 °C)
CCCUAGCAAUAUUACGUUCA	-3.05 ± 0.19	-2.7 ± 0.2
CCCUAGCAAUAUUACGUUCG	-3.63 ± 0.27	-2.64 ± 0.33
CCGAAGCAAUAUUACGAAAG	-1.21 ± 0.073	-0.965 ± 0.092
CCGAAGCAAUAUUACGAGAA	-2.48 ± 0.47	-1.17 ± 0.49
CCGAAGCAAUAUUACGAGCC	-3.7 ± 0.26	-2.8 ± 0.23
CCGAAGCAAUAUUACGAGGC	-4.67 ± 0.42	-3.39 ± 0.29
CCGAAGCAAUAUUACGAUCU	-3.36 ± 0.34	-2.85 ± 0.29
CCGAAGCAAUAUUACGCAUU	-3.01 ± 0.2	-3.77 ± 0.29
CCGAAGCAAUAUUACGCUGG	-2.83 ± 0.22	-3.49 ± 0.35
CCGAAGCAAUAUUACGGAAG	-3.86 ± 0.24	-1.31 ± 0.15
CCGAAGCAAUAUUACGGGAG	-2.67 ± 0.18	-2.46 ± 0.23
CCGAAGCAAUAUUACGGGCA	–	-2.82 ± 0.25
CCGAAGCAAUAUUACGGGUU	-4.22 ± 0.21	-2.64 ± 0.16
CCGAAGCAAUAUUACGUACG	-1.37 ± 0.13	-0.92 ± 0.13
CCGAAGCAAUAUUACGUAGA	-3.45 ± 0.17	-1.06 ± 0.17
CCGAAGCAAUAUUACGUCAA	-3.82 ± 0.38	-2.35 ± 0.33
CCGAAGCAAUAUUACGUCUG	-0.669 ± 0.06	-0.285 ± 0.068
CCGAAGCAAUAUUACGUGAU	-3.4 ± 0.13	-2.84 ± 0.19
CCGAAGCAAUAUUACGUGGG	-3.82 ± 0.14	-2.39 ± 0.14
CCGAAGCAAUAUUACGUUUA	-3.96 ± 0.26	-2.95 ± 0.19
CCGAAGCAAUAUUACGUUUG	-4.44 ± 0.22	-0.979 ± 0.1
CCGCAGCAAUAUUACGAAGC	-3.14 ± 0.22	-3.36 ± 0.25
CCGCAGCAAUAUUACGAUAG	-0.786 ± 0.052	0.602 ± 0.07
